This passage reports Kd results from paper PMC8938473 (2022).

This experiment deals with GST-BpfD-In (BpfD intracellular domains) (Shewanella putrefaciens CN32). Put plainly: MST.

As usually defined, the Kd is the constant that tells how readily two partners part at equilibrium. Higher therefore signals a looser complex.

B1: His6-CRP (natural protein)
chain: MALIGKPKPDPTLEWFLSHCHIHKYPAKSTLIHAGEDSDTLYYIVKGSVAVLIKDEEGKEMILSYLNQGDFIGELGLFEEQAERTAWVRAKQACEIAEISYKKFKQLIQVNPEILMKLSAQMAYRLQSTSQKVGNLAFLDVAGRIAQTLLHLAKQPDAMTHPDGMQIKITRQEIGQIVGCSRETVGRILKMLEEQNLIQAHGKTIVVYGTR
modifications: labeled with NHS NT-647 dye (in the MST assay only)
Take B1: the Kd came out at 4.9 µM.
